Where “and” joins values, the source holds several entries; their conditions need not be identical. Identical values can stand only once. Bridges are numbered along the chain shown (N, C = ends). Where no end group is shown, it is not given here.
T1: ferret MCH-2R (ferret, UniProt Q969V1 1-340 (human entry))
T1 chain: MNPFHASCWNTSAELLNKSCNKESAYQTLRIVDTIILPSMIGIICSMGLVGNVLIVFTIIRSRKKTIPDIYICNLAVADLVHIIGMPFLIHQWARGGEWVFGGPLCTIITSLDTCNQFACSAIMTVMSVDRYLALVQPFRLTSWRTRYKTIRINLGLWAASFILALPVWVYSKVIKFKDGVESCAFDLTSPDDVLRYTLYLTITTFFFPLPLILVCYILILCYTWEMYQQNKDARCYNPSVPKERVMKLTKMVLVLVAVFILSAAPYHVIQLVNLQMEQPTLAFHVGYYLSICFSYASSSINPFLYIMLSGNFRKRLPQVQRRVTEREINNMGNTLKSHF


Experiments:
[1] = molecular target: rhesus monkey MCH-2R (melanin-concentrating hormone type 2 receptor) (rhesus monkey) (UniProt Q8MJ88); assay: radioligand binding to HEK293T cells expressing rhesus MCH-2R, cell-bound radioactivity
Sequence of rhesus monkey MCH-2R (melanin-concentrating hormone type 2 receptor) (rhesus monkey) (Q8MJ88 whole entry): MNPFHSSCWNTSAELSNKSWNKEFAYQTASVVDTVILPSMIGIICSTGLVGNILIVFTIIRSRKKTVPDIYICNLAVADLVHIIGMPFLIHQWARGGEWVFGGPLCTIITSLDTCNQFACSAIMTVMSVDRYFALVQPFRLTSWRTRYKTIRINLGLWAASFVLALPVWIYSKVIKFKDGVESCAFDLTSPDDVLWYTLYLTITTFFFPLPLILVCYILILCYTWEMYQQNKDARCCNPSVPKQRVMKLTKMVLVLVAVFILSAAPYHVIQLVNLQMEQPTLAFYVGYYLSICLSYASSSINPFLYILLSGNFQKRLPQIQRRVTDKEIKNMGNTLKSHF

[2] = molecular target: rhesus monkey MCH-2R (melanin-concentrating hormone type 2 receptor) (rhesus monkey) (UniProt Q8MJ88); assay: radioligand binding to HEK293T cells expressing rhesus MCH-2R in the presence of 1 uM cold [Phe13, Tyr19]-MCH
[3] = molecular target: T2, rhesus monkey MCH-2R (melanin-concentrating hormone type 2 receptor) (rhesus monkey, UniProt Q8MJ88 1-340); assay: cell-based or functional assay
T2 sequence (Q8MJ88 whole entry): as above

[4] = molecular target: T3, human MCH-2R (human, UniProt Q969V1 1-340); assay: cell-based or functional assay
T3 sequence (Q969V1 whole entry): as the sequence (Q8MJ88 whole entry) above, with S6A, S16L, I84V, S143R, V163I, I170V, A258V, V324A, D326E, K330N counted along it

[5] = molecular target: T1, ferret MCH-2R; assay: cell-based or functional assay
[6] = molecular target: T3, human MCH-2R; assay: radioligand competition binding on membranes of COS-7 cells transfected with human MCH-2R; radioligand not named
Procedure: (§1) (Strader, et al., 1987. Proc. Natl. Acad. Sci. USA 84, 4384-4388). Cells were harvested after 60-72 hours. Membranes were prepared from transient and stable transfectants by hypotonic lysis, frozen in liquid nitrogen, and stored at −80° C. (MacNeil, et al., 1994. Biochem. Biophys. Res. Commun. 198, 328-334.)
(§2) A binding assay was set up in 96 well plates. Total volume per binding assay point was 200 μL. […] Dose response curves were from 10 μM in 5 fold or 3-fold dilution series for 11 points. The mixture was shaken for 5 minutes on a platform shaker, and incubated at room temperature for 1 hour. Filter plates were presoaked in 1% PEI. The binding reaction was harvested onto filters using Packard Filtermate harvester (Meriden, Conn.). The filters were then washed in 50 mM Tris pH 7.4, 10 mM MgCl₂, 2 mM EDTA, 0.04% Tween 20, 6-8 times per plate. The plates were dried for 20 minutes at 55° C. or overnight at room temperature. 30 μL microscintillant was added per well and counted for 1.5-3 minutes in inverted format on Packard TopCount.

[7] = molecular target: T1, ferret MCH-2R; assay: radioligand competition binding on membranes of COS-7 cells transfected with ferret MCH-2R; radioligand not named
Procedure: as §1, §2

[8] = molecular target: T2, rhesus monkey MCH-2R …; assay: displacement of 100 pM [125I]-[Phe13, Tyr19]-MCH from HEK293T cells expressing rhesus MCH-2R, filtration
Procedure: The remaining radio activity on the filter was quantitated using a TopCount HTS (Packard instrument) with a Microscint 0 scintillation cocktail (Packard instrument). […] Data were analyzed using GraphPad Prism Version 3.0.

Total binding (cpm) [1]	Nonspecific binding (cpm) [2]	increase in intracellular calcium levels (fura-2), EC50 [3] [nM]	Function (EC50, nM), aequorin bioluminescence assay [4] [nM]	Function (EC50, nM), aequorin bioluminescence assay [5] [nM]	IC50 [6] [nM]	IC50 [7] [nM]	IC50 [8] [nM]	Molecule
18000 cpm (2×) and 18700 cpm	598 cpm and 567 cpm and 717 cpm	–	–	–	–	–	–	[^125I]-[Phe^13, Tyr^19]-MCH (from UniProt P20382 147-165) (peptide)
–	–	24	43	69	10	55	–	DFDMLRCMLGRVYRPCWQV (peptide, UniProt P20382 147-165, looked up, disulfide 7-16 (inferred), mature; also called cold MCH; MCH unlabeled peptide) [Melanin-concentrating hormone (MCH)]
–	–	49	–	–	–	–	3.8	DFDMLRCMLGRVFRPCWQY (ends and bridges not checked; cysteine pairing not given here) [[Phe^13, Tyr^19]-MCH]

From patent publication US20040132045A1 (MERCK, published 2004)
